Tests used:
[1] = biological target: C1-fused SRC kinases; assay: split reporter (BiFC, NanoBiT); Gaussia princeps luciferase complementation assay in human HEK293T cells; Gluc2 at the N terminus of SKAP1 or SKAP2 (N2), Gluc1 at the N terminus (N1) or C terminus (C1) of the SRC kinase; 100 ng plasmid pair, PEI; luminescence read in lysate one day later; normalized luminescence ratio (NLR), given relative to wild type or to SKAP2
[2] = biological target: N1-fused SRC kinases; assay: as above

Row | wild-type normalized NLR, mean over SRC kinases [1] | wild-type normalized NLR, mean over SRC kinases [2] | Binder
1 | 0.51 | 0.29 | SKAP1 Link2SH3 mutant, N2-fused (domain or fragment) SSLTIPYEEDEEEEEKEETYDDIDGFDSPSCGSQCRPTILPGSVGIKEPTEEKEEEDIYEVLPDEEHDLEEDESGTRRKGVDYASYYQGLWDCHGDQPDELSFQRGDLIRILSKEYNMYGWWVGELNSLVGIVPKEYLTTAFEVEE
2 | 0.87 | 1.35 | SKAP1 ΔPH deletion mutant, N2-fused (natural protein) MQAAALPEEIRWLLEDAEEFLAEGLRNENLSAVARDHRDHILRGFQQIKARYYWDFQPQGGDIGQDSSDDNHSGTLGLSLTSDAPFLSDYQDEGMEDIVKGAQELDDLSSLTIPYEEDEEEEEKEETYDDIDGFDSPSCGSQCRPTILPGSVGIKEPTEEKEEEDIYEVLPDEEHDLEEDESGTRRKGVDYASYYQGLWDCHGDQPDELSFQRGDLIRILSKEYNMYGWWVGELNSLVGIVPKEYLTTAFEVEER
3 | 0.32 | 0.11 | SKAP1 DomDIM mutant, N2-fused (domain or fragment) MQAAALPEEIRWLLEDAEEFLAEGLRNENLSAVARDHRDHILRGFQQIKARYYWDFQPQGGDIGQDSSDDNHSGTLGLSLTSDAPFLSDYQDEGMEDIV
4 | 2.53 | 1.51 | SKAP1 ΔSH3 mutant, N2-fused (domain or fragment) MQAAALPEEIRWLLEDAEEFLAEGLRNENLSAVARDHRDHILRGFQQIKARYYWDFQPQGGDIGQDSSDDNHSGTLGLSLTSDAPFLSDYQDEGMEDIVKGAQELDNVIKQGYLEKKSKDHSFFGSEWQKRWCVVSRGLFYYYANEKSKQPKGTFLIKGYGVRMAPHLRRDSKKESCFELTSQDRRSYEFTATSPAEARDWVDQISFLLKDLSSLTIPYEEDEEEEEKEETYDDIDGFDSPSCGSQCRPTILPGSVGIKEPTEEKEEEDIYEVLPDEEHDLEEDESGTRRK
5 | 0.96 | 1.57 | SKAP1 ΔLink1PH deletion mutant, N2-fused (natural protein) MQAAALPEEIRWLLEDAEEFLAEGLRNENLSAVARDHRDHILRGFQQIKARYYWDFQPQGGDIGQDDLSSLTIPYEEDEEEEEKEETYDDIDGFDSPSCGSQCRPTILPGSVGIKEPTEEKEEEDIYEVLPDEEHDLEEDESGTRRKGVDYASYYQGLWDCHGDQPDELSFQRGDLIRILSKEYNMYGWWVGELNSLVGIVPKEYLTTAFEVEER
6 | 1.49 | 1.17 | SKAP1 D120K mutant, N2-fused (natural protein) MQAAALPEEIRWLLEDAEEFLAEGLRNENLSAVARDHRDHILRGFQQIKARYYWDFQPQGGDIGQDSSDDNHSGTLGLSLTSDAPFLSDYQDEGMEDIVKGAQELDNVIKQGYLEKKSKKHSFFGSEWQKRWCVVSRGLFYYYANEKSKQPKGTFLIKGYGVRMAPHLRRDSKKESCFELTSQDRRSYEFTATSPAEARDWVDQISFLLKDLSSLTIPYEEDEEEEEKEETYDDIDGFDSPSCGSQCRPTILPGSVGIKEPTEEKEEEDIYEVLPDEEHDLEEDESGTRRKGVDYASYYQGLWDCHGDQPDELSFQRGDLIRILSKEYNMYGWWVGELNSLVGIVPKEYLTTAFEVEER
7 | 1.24 | 1.16 | SKAP1 W333K mutant, N2-fused (natural protein) MQAAALPEEIRWLLEDAEEFLAEGLRNENLSAVARDHRDHILRGFQQIKARYYWDFQPQGGDIGQDSSDDNHSGTLGLSLTSDAPFLSDYQDEGMEDIVKGAQELDNVIKQGYLEKKSKDHSFFGSEWQKRWCVVSRGLFYYYANEKSKQPKGTFLIKGYGVRMAPHLRRDSKKESCFELTSQDRRSYEFTATSPAEARDWVDQISFLLKDLSSLTIPYEEDEEEEEKEETYDDIDGFDSPSCGSQCRPTILPGSVGIKEPTEEKEEEDIYEVLPDEEHDLEEDESGTRRKGVDYASYYQGLWDCHGDQPDELSFQRGDLIRILSKEYNMYGKWVGELNSLVGIVPKEYLTTAFEVEER
